Values belong to the sequence of their own block, whether it stands above or below them.
Experiments:
HLA-A*80:01 = test: IEDB peptide-MHC binding, purified MHC/direct/fluorescence; filed as Kd, often an IC50 or EC50 that approximates it; ≥ and ≤ were set here for values at or beyond the usual limits of such assays
HLA-A*02:01 [1] = test: IEDB peptide-MHC binding, purified MHC/competitive/radioactivity; filed as Kd, often an IC50 or EC50 that approximates it; ≥ and ≤ were set here for values at or beyond the usual limits of such assays
HLA-A*02:17 = test: as above
HLA-A*01:01 [2] = test: IEDB peptide-MHC binding, purified MHC/direct/fluorescence; filed as Kd, often an IC50 or EC50 that approximates it; ≥ and ≤ were set here for values at or beyond the usual limits of such assays
HLA-A*02:01 [3] = test: as above
HLA-A*03:01 [4] = test: as above
HLA-A*11:01 = test: as above
HLA-A*26:01 = test: as above
HLA-A*31:01 [5] = test: as above
HLA-A*69:01 = test: as above
HLA-B*07:02 = test: as above
HLA-B*08:01 = test: as above
HLA-B*15:01 [6] = test: as above
HLA-B*27:05 = test: as above
HLA-B*35:01 = test: as above
HLA-B*39:01 = test: as above; settings: source organism: Giardia lamblia ATCC 50803
HLA-B*40:01 = test: as above
HLA-B*44:02 = test: as above; settings: source organism: Giardia lamblia ATCC 50803
HLA-B*58:01 = test: as above
HLA-A*31:01 [7] = test: IEDB peptide-MHC binding, purified MHC/competitive/fluorescence; filed as Kd, often an IC50 or EC50 that approximates it; ≥ and ≤ were set here for values at or beyond the usual limits of such assays
HLA-A*24:03 = test: IEDB peptide-MHC binding, purified MHC/direct/fluorescence; filed as Kd, often an IC50 or EC50 that approximates it; ≥ and ≤ were set here for values at or beyond the usual limits of such assays
HLA-A*01:01 [8] = test: IEDB peptide-MHC binding, purified MHC/competitive/radioactivity; filed as Kd, often an IC50 or EC50 that approximates it; ≥ and ≤ were set here for values at or beyond the usual limits of such assays; settings: source organism: Dengue virus 4 Philippines/H241/1956
HLA-A*02:06 = test: as above
HLA-A*02:03 = test: as above
HLA-A*29:02 [9] = test: IEDB peptide-MHC binding, purified MHC/competitive/fluorescence; filed as Kd, often an IC50 or EC50 that approximates it; ≥ and ≤ were set here for values at or beyond the usual limits of such assays; settings: source organism: Mycobacterium tuberculosis variant bovis BCG str. Pasteur 1173P2
HLA-A*03:01 [10] = test: as above
HLA-A*68:02 = test: IEDB peptide-MHC binding, purified MHC/competitive/radioactivity; filed as Kd, often an IC50 or EC50 that approximates it; ≥ and ≤ were set here for values at or beyond the usual limits of such assays
HLA-A*33:01 = test: as above; settings: source organism: Lassa virus Josiah
HLA-A*68:01 = test: as above; settings: source organism: Lassa virus Josiah
HLA-B*15:01 [11] = test: IEDB peptide-MHC binding, purified MHC/competitive/fluorescence; filed as Kd, often an IC50 or EC50 that approximates it; ≥ and ≤ were set here for values at or beyond the usual limits of such assays; settings: source organism: Escherichia coli O157:H7 str. EDL933
HLA-A*29:02 [12] = test: IEDB peptide-MHC binding, purified MHC/direct/fluorescence; filed as Kd, often an IC50 or EC50 that approximates it; ≥ and ≤ were set here for values at or beyond the usual limits of such assays; settings: source organism: Mammarenavirus juninense
[13] = source organism: Dengue virus 1 Singapore/S275/1990
[14] = source organism: Dengue virus 3 China/80-2/1980
[15] = source organism: Giardia lamblia ATCC 50803
[16] = source organism: Yersinia pestis
[17] = source organism: Mammarenavirus lassaense
[18] = source organism: Corynebacterium glutamicum
[19] = source organism: Dengue virus 4 Philippines/H241/1956
[20] = source organism: Dengue virus 1 Brazil/97-11/1997
[21] = source organism: Bacillus anthracis str. A2012
[22] = source organism: Shigella sonnei Ss046
[23] = source organism: Escherichia coli O157:H7
[24] = source organism: Dengue virus 2 Jamaica/1409/1983
[25] = source organism: Mammarenavirus juninense
[26] = source organism: Haemophilus influenzae

Sequence: AIDLDPVVY
Kd (HLA-A*80:01; [13]): ≥ 5000 nM

Sequence: ALFSGVSWIM
Kd (HLA-A*02:01 [1]; [14]): 6.61 nM
Kd (HLA-A*02:17; [14]): 202 nM

Sequence: ARADGILRF
Kd (HLA-A*01:01 [2]; [15]): ≥ 20000 nM
Kd (HLA-A*02:01 [3]; [15]): ≥ 20000 nM
Kd (HLA-A*03:01 [4]; [15]): ≥ 20000 nM
Kd (HLA-A*11:01; [15]): ≥ 20000 nM
Kd (HLA-A*26:01; [15]): ≥ 20000 nM
Kd (HLA-A*31:01 [5]; [15]): ≥ 20000 nM
Kd (HLA-A*69:01; [15]): ≥ 20000 nM
Kd (HLA-B*07:02; [15]): ≥ 20000 nM
Kd (HLA-B*08:01; [15]): ≥ 20000 nM
Kd (HLA-B*15:01 [6]; [15]): ≥ 20000 nM
Kd (HLA-B*27:05; [15]): 201 nM
Kd (HLA-B*35:01; [15]): 4030 nM
Kd (HLA-B*39:01): 2560 nM
Kd (HLA-B*40:01; [15]): 3170 nM
Kd (HLA-B*44:02): ≥ 20000 nM
Kd (HLA-B*58:01; [15]): ≥ 20000 nM

Sequence: AVFEIFFRK
Kd (HLA-A*11:01; source organism: Mycobacterium tuberculosis): 12.6 nM
Kd (HLA-A*31:01 [7]; source organism: Mycobacterium tuberculosis variant bovis BCG str. Pasteur 1173P2): 61.7 nM

Sequence: DLRPYGLIK
Kd (HLA-A*01:01 [2]; [16]): ≥ 20000 nM
Kd (HLA-A*80:01; [16]): ≥ 20000 nM

Sequence: DTPGERNPY
Kd (HLA-A*01:01 [2]; [17]): ≥ 20000 nM
Kd (HLA-A*80:01; [17]): ≥ 20000 nM

Kd (HLA-A*01:01 [2]; [18]): ≥ 20000 nM
Kd (HLA-A*02:01 [3]; [18]): ≥ 20000 nM
Kd (HLA-A*03:01 [4]; [18]): ≥ 20000 nM
Kd (HLA-A*11:01; [18]): ≥ 20000 nM
Kd (HLA-A*24:03; [18]): ≥ 20000 nM
Kd (HLA-A*26:01; [18]): ≥ 20000 nM
Kd (HLA-A*31:01 [5]; [18]): ≥ 20000 nM
Kd (HLA-B*07:02; [18]): 122 nM
Kd (HLA-B*08:01; [18]): 2340 nM
Kd (HLA-B*15:01 [6]; [18]): 296 nM
Kd (HLA-B*27:05; [18]): ≥ 20000 nM
Kd (HLA-B*35:01; [18]): 5.17 nM
Kd (HLA-B*40:01; [18]): 2570 nM
Kd (HLA-B*58:01; [18]): 2380 nM
Sequence: FAAAAARTL

Sequence: FIDGISLGL
Kd (HLA-A*01:01 [8]): 1520 nM
Kd (HLA-A*02:01 [1]; [19]): 18.9 nM
Kd (HLA-A*02:06; [19]): 32.4 nM
Kd (HLA-A*02:17; [19]): 56.1 nM

Sequence: ILNPYMPSV
Kd (HLA-A*02:01 [1]; [13]): 4.26 nM
Kd (HLA-A*02:03; [20]): 1.98 nM
Kd (HLA-A*02:06; [20]): 4.98 nM
Kd (HLA-A*02:17; [13]): 3.58 nM

Sequence: KILNPYMPSV
Kd (HLA-A*02:01 [1]; [13]): 4.81 nM
Kd (HLA-A*02:03; [20]): 48.5 nM
Kd (HLA-A*02:06; [20]): 5.14 nM
Kd (HLA-A*02:17; [13]): 7.71 nM

Sequence: KLRMVTGLR
Kd (HLA-A*03:01 [4]; source organism: Influenza A virus (A/Liaoning/25/2000(H1N1))): 366 nM
Kd (HLA-A*31:01 [7]; source organism: Influenza A virus (A/Bangkok/10/1983(H1N1))): 45.1 nM

Sequence: LAIDRDDLY
Kd (HLA-A*29:02 [9]): 5.3 nM

Sequence: LLLSFTSFR
Kd (HLA-A*03:01 [10]; [21]): 22.9 nM
Kd (HLA-A*31:01 [7]; [21]): 2.6 nM

Sequence: MQLSRLTLR
Kd (HLA-A*03:01 [10]; [22]): 3500 nM
Kd (HLA-A*31:01 [7]; [22]): 6.1 nM

Sequence: MTLWYMWQV
Kd (HLA-A*02:01 [1]; [19]): 13.7 nM
Kd (HLA-A*02:06; [19]): 2.67 nM
Kd (HLA-A*02:17; [19]): 27.4 nM
Kd (HLA-A*68:02; [19]): 11.3 nM

Sequence: MVLAFITFL
Kd (HLA-A*02:01 [1]; [19]): 16.9 nM
Kd (HLA-A*02:06; [19]): 3.45 nM
Kd (HLA-A*02:17; [19]): 3.99 nM
Kd (HLA-A*68:02; [19]): 19.2 nM

Sequence: RTRDIYISR
Kd (HLA-A*03:01 [4]; [17]): 98.5 nM
Kd (HLA-A*11:01; [17]): ≥ 20000 nM
Kd (HLA-A*31:01 [7]; source organism: Lassa virus GA391): 4.75 nM
Kd (HLA-A*33:01): 22.3 nM
Kd (HLA-A*68:01): 825 nM

Sequence: RVIRTVREK
Kd (HLA-A*01:01 [2]; [23]): ≥ 20000 nM
Kd (HLA-A*80:01; [23]): ≥ 20000 nM

Sequence: TMTDDIGMGV
Kd (HLA-A*02:01 [1]; [24]): 21.3 nM
Kd (HLA-A*02:03; [24]): 7.59 nM
Kd (HLA-A*02:06; [24]): 5.64 nM
Kd (HLA-A*02:17; [24]): 313 nM
Kd (HLA-A*68:02; [24]): 116 nM

Kd (HLA-A*31:01 [7]; source organism: Escherichia coli O157:H7 str. EDL933): 1.7 nM
Kd (HLA-B*15:01 [11]): ≥ 20000 nM
Sequence: VLIGRRWFR

Sequence: VSDRPVMRY
Kd (HLA-A*01:01 [2]; [25]): 185 nM
Kd (HLA-A*29:02 [12]): 117 nM
Kd (HLA-A*80:01; [25]): 360 nM

Kd (HLA-A*01:01 [2]; [26]): ≥ 20000 nM
Kd (HLA-A*02:01 [3]; [26]): 666 nM
Kd (HLA-A*03:01 [4]; [26]): ≥ 20000 nM
Kd (HLA-A*11:01; [26]): ≥ 20000 nM
Kd (HLA-A*24:03; [26]): 893 nM
Kd (HLA-A*26:01; [26]): ≥ 20000 nM
Kd (HLA-A*31:01 [5]; [26]): ≥ 20000 nM
Kd (HLA-A*69:01; [26]): ≥ 20000 nM
Kd (HLA-B*08:01; [26]): ≥ 20000 nM
Kd (HLA-B*15:01 [6]; [26]): 10500 nM
Kd (HLA-B*27:05; [26]): ≥ 20000 nM
Kd (HLA-B*35:01; [26]): 290 nM
Kd (HLA-B*40:01; [26]): ≥ 20000 nM
Kd (HLA-B*58:01; [26]): ≥ 20000 nM
Sequence: YATVAGHEG

Sequence: YVVIAILTV
Kd (HLA-A*02:01 [1]; [24]): 254 nM
Kd (HLA-A*02:06; [24]): 12.4 nM
Kd (HLA-A*02:17; [24]): 509 nM
Kd (HLA-A*68:02; [24]): 26.3 nM

— the Immune Epitope Database (IEDB)
